Patent US20260028400A1 (AIMED BIO, published 2026)
Numbering of substitutions follows the chain as printed.

B1: P015042v1-4 (antibody, V domains shown)
VH: EVQLLESGGGLVQPGGSLRLSCAASGFTFSDYAMSWVRQAPGKGLEWVSVISSDGGSIYYADSVKGRFTISRDNSKNTLYLQMNSLRAEDTAVYYCAKDRSRDMEVDFDYWGQGTLVTVSS
VL: QSVLTQPPSASGTPGQRVTISCSGSSSNIGSNYVTWYQQLPGTAPKLLIYDKSQRPSGVPDRFSGSKSGTSASLAISGLRSEDEADYYCGTWDYSLNGYVFGGGTKLTVL
notes: Variant of P015042v1, tested as IgG; also called LC S51 substituted with K
B2: P015042v1-2 (antibody, V domains shown)
VH: B1 VH with G55K
VL: B1 VL with K52S
notes: Variant of P015042v1, tested as IgG; also called HC G55 substituted with K
B3: P015042v1-3 (antibody, V domains shown)
VH: B1 VH
VL: B1 VL with K52A
notes: Variant of P015042v1, tested as IgG; also called LC S51 substituted with A
B4: P015042v1-5 (antibody, V domains shown)
VH: B1 VH
VL: B1 VL with K52S, G98A
notes: Variant of P015042v1, tested as IgG; also called LC G95 substituted with A
B5: P015042v1-1 (antibody, V domains shown)
VH: B1 VH with G55V
VL: B1 VL with K52S
notes: Variant of P015042v1, tested as IgG; also called HC G55 substituted with V
B6: P015043-vcPAB-MMAE (antibody, IgG1, V domains shown)
VH: EVQLLESGGGLVQPGGSLRLSCAASGFTFSNYDMSWVRQAPGKGLEWVSWISPGGSSIYYADSVKGRFTISRDNSKNTLYLQMNSLRAEDTAVYYCAKTLTRFDYWGQGTLVTVSS
VL: B1 VL with S23T, S31N, Y33N, T35S, D51Y, K52D, Q54H, Y94S, N97S
modifications: maleimidocaproyl-valine-citrulline-p-aminobenzyloxycarbonyl monomethyl auristatin E on cysteine sulfhydryls of reduced disulfides; positions not given; DAR 3.32
B7: P015004-vc-PAB-MMAE (antibody, IgG1, V domains shown)
VH: EVQLLESGGGLVQPGGSLRLSCAASGFTFSDYAMAWVRQAPGKGLEWVSIIYPGDSETIYSPSFEGRFTISRDNSKNTLYLQMNSLRAEDTAVYYCARDTYWEGYFDLWGQGTLVTVSS
VL: EIVLTQSPGTLSLSPGERATLSCRASQGISNYLAWYQQKPGQAPRLLIYDASNLESGIPDRFSGSGSGTDFTLTISRLEPEDFAVYYCQQYANLPYTFGQGTKVEIK
modifications: maleimidocaproyl-valine-citrulline-p-aminobenzyloxycarbonyl monomethyl auristatin E on cysteine sulfhydryls of reduced disulfides; positions not given; average 3.0 drugs per antibody
B8: P015017 scFv (scFv, V domains shown)
VH: EVQLLESGGGLVQPGGSLRLSCAASGFTFSGYAMSWVRQAPGKGLEWVSVISPGSGSKYYADSVRGRFTVSRDNSKNTLYLQMNSLRAEDTAVYYCARYPLLRYAGALYSAYAMDVWGQGTLVTVSS
VL: B1 VL with T35S, D51A, K52N, Q54H, T91A, Y94S
notes: HA-tagged scFv
B9: P015016 scFv (scFv, V domains shown)
VH: EVQLLESGGGLVQTGGSLRLSCAASGFTFSDYAMSWVRQAPGKGLEWVSAISHGGSSKYYADSVKGRFTISRDNSKNTLYLQMNSLRAEDTAVYYCARVSLDFDYWGQGTLVAVSS
VL: QSVLTQPPSASGTPGQRVTISCSGSSSNIGSNTFNWYQQLPGTAPKLLIYADSHRPSGVPDRFSGSKSGTSASLAISGLRSEDEADYYCAAWDASLSAYVFGGGTKLTVL
notes: HA-tagged scFv
B10: P015018 scFv (scFv, V domains shown)
VH: EVQLLESGGGLVQPDGSMRLICAASGFTFSSYAKHWVRQAPGKGLEWVSEIYTSGSTNYNPSLKSRFTISRDNSKNTLYLQMNSLRAEDTAVYYCARDTWWEGYFDLWGQGTLVTVSS
VL: B7 VL with G28S, I29V, N31T, N53S, Y91S, A92Y, Y96H
notes: HA-tagged scFv
B11: P015004 scFv (scFv, V domains shown)
VH: B7 VH
VL: B7 VL
notes: HA-tagged scFv
B12: P015023 scFv (scFv, V domains shown)
VH: EVQLLESGGGLVQPGGSLRLSCAASGFTFSGYDMSWVRQAPGKGLEWVSGISHDGRSKYYADSVKGRFTVSRDNSKNTLYLQMNSLRAEDTAVYYCAKDVPFKMRFIFDYWGQGTLVTVSS
VL: B9 VL with I20L, S23T, F34V, N35Y, H54Q, A90G, A91S, A94S, S97N
notes: HA-tagged scFv
B13: P015028 scFv (scFv, V domains shown)
VH: EVQLLESGGGMVQTGGSLRLSCAASGFTFSDYAMSWVRQAPGKGLEWVSAISYDNGNTYYADSVKGRFTISRDNSKNALYLQMNSLRAEDTAVYYCAKVNHRFDYWGQGTLVTVSS
VL: B9 VL with D52N, A91S, A98G
notes: HA-tagged scFv
B14: P015022 scFv (scFv, V domains shown)
VH: B6 VH with W50S, P53S, G54N, S56G, I58T, T99C, T101L, R102Q
VL: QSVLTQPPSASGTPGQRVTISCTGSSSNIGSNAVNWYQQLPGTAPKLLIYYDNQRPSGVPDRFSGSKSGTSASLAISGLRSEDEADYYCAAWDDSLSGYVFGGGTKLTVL
notes: HA-tagged scFv
B15: P015020 scFv (scFv, V domains shown)
VH: B6 VH with N31G, D33Y, W50V, P53H, G54D, I58T, T99V, L100K, T101Y, R102I
VL: B9 VL with S23T, S31N, F34V, H54N, A90D, A91T, A94S, S97N
notes: HA-tagged scFv
B16: P015024 scFv (scFv, V domains shown)
VH: B6 VH with N31D, D33Y, W50L, G55S, S56D, I58K, T99I, L100E, T101P, R102D
VL: B9 VL with A91T, A94Y
notes: HA-tagged scFv

Biological target: T1, human ROR1 (human, UniProt Q01973 30-403, limits assumed)
T1 construct: also called human ROR1 protein
T1 sequence (Q01973 30-403 limits assumed): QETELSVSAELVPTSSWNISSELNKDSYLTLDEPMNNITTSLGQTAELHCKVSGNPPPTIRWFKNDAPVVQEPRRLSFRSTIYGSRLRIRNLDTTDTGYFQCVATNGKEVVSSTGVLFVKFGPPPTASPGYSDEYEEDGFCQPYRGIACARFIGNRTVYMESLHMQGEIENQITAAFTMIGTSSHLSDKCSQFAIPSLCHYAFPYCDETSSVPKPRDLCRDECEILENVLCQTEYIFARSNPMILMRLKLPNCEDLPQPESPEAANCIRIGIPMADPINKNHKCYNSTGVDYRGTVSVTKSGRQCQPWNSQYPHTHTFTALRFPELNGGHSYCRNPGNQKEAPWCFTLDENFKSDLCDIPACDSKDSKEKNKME
Assay: ELISA, IgG on coated human ROR1, OD450
Experimental: (§1) A 96-well plate was coated at 4° C. for 16 hours with each of human ROR1 and mouse ROR1 proteins at a concentration of 2 μg/ml and then blocked using […]. […] After washing with PBST and distilled water, binding at room temperature for 1 hour using a goat-derived HRP-conjugated anti-human antibody (Invitrogen, 31482, Goat anti-Human IgG F(ab′)₂ Secondary Antibody, HRP) and then washing again using PBST and distilled water were performed. After color development by adding TMB substrate solution (Thermo Scientific, 34029, 1-Step™ Ultra TMB-ELISA Substrate Solution), the color reaction was stopped with stop solution (Invitrogen, SS04, ELISA Stop Solution), and the absorbance was measured at OD 450 nm. It was confirmed that the anti-ROR1 antibody of the present invention and the modified antibody thereof with improved biological and physical properties […] to human ROR1 and mouse ROR1 (FIG. 2).

EC50 (read off the curve)	Binder
~500 pM	B1
~500 pM	B2
~500 pM	B3
~500 pM	B4
~500 pM	B5

Biological target: T2, mouse ROR1 (mouse, UniProt Q9Z139 30-403, limits assumed)
T2 construct: also called mouse ROR1 protein
T2 sequence (Q9Z139 30-403 limits assumed): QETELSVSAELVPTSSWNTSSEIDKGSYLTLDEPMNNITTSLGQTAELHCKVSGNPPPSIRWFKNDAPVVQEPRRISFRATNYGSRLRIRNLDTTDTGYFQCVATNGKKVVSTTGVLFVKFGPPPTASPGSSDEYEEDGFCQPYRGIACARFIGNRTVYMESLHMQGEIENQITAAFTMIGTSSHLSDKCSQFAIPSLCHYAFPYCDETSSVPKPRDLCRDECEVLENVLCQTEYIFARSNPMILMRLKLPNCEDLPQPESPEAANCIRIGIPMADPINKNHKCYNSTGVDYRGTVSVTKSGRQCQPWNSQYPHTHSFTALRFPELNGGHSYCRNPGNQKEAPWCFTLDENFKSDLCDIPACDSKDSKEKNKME
Assay: ELISA, IgG on coated mouse ROR1, OD450
Experimental: as §1

EC50 (read off the curve)	Binder
~300 pM	B1
~300 pM	B2
~300 pM	B3
~300 pM	B4
~300 pM	B5

Biological target: ROR1 expressed on cell surface (Jeko-1 cell line, AMB-LC-0003T and AMB-LC-0002T patient-derived lung cancer … (human, UniProt Q01973 30-937))
Sequence (Q01973 30-937): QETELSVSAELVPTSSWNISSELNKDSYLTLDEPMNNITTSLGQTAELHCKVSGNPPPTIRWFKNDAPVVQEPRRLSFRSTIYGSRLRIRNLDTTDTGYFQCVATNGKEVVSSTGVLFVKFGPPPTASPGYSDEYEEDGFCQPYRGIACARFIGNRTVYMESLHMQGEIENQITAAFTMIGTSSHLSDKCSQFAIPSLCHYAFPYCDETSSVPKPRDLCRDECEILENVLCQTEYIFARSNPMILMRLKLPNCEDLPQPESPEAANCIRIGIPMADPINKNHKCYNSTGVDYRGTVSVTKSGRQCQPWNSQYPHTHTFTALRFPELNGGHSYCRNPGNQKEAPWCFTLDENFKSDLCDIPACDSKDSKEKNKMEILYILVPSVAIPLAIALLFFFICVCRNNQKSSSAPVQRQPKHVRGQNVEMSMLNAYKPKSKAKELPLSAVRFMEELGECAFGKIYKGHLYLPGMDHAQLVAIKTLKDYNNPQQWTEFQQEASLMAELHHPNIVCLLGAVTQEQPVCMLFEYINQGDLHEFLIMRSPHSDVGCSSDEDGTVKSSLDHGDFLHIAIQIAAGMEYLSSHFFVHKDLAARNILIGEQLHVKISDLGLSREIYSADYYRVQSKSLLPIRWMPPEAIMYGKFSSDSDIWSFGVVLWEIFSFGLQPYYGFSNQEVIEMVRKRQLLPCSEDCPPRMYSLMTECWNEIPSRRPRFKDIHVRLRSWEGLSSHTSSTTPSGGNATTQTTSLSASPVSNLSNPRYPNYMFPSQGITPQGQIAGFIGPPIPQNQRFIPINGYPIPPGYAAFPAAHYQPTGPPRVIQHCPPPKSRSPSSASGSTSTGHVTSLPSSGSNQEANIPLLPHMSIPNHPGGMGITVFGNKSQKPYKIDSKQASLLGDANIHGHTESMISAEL
Assay: cell-based or functional assay

Fold Change of IC50, AMB-LC-0002T/AMB-LC-0003T	IC50 (nM), spheroid volume after 6 days of treatment, AMB-LC-0003T (high ROR1 expression)	IC50 (nM), spheroid volume, AMB-LC-0002T (very low ROR1 expression)	Binder
4.8 fold	34.6 nM	165 nM	B6
15 fold	10.6 nM	160 nM	B7

Biological target: T2, mouse ROR1
Assay: SPR (Biacore 3000), mouse ROR1 on CM5 chip, IgG injected, 1:1 Langmuir
Experimental: (§2) To more quantitatively analyze the binding ability of the anti-ROR1 antibody to ROR1, SPR (surface plasmon resonance) was performed. A Biacore 3000 device (GE Healthcare) was used. Using the amine coupling method, human ROR1 or mouse ROR1 was diluted with 10 mM sodium acetate, pH 4.5 and immobilized on a CM5 sensor chip (GE Healthcare) at 300 response units (RU). The activated portion remaining on the surface of the sensor chip was deactivated by adding 1 M ethanolamine-HCl (pH 8.5).

Kd	koff	kon	Binder
132 pM	0.000282 s⁻¹	2.14e+06 M⁻¹ s⁻¹	B1
83.1 pM	0.000226 s⁻¹	2.71e+06 M⁻¹ s⁻¹	B2
127 pM	0.000548 s⁻¹	4.3e+06 M⁻¹ s⁻¹	B3
41.6 pM	0.000106 s⁻¹	2.54e+06 M⁻¹ s⁻¹	B4
192 pM	0.00043 s⁻¹	2.24e+06 M⁻¹ s⁻¹	B5

Biological target: T1, human ROR1
Assay: SPR (Biacore 3000), human ROR1 on CM5 chip, IgG injected, 1:1 Langmuir
Experimental: as §2

Kd	koff	kon	Binder
21.3 pM	4.34e-05 s⁻¹	2.04e+06 M⁻¹ s⁻¹	B1
15.2 pM	4.08e-05 s⁻¹	2.66e+06 M⁻¹ s⁻¹	B2
26.2 pM	7.95e-05 s⁻¹	3.03e+06 M⁻¹ s⁻¹	B3
7.48 pM	1.89e-05 s⁻¹	2.53e+06 M⁻¹ s⁻¹	B4
33 pM	7.22e-05 s⁻¹	2.19e+06 M⁻¹ s⁻¹	B5

Biological target: T3, Ig-like (human, UniProt Q01973)
T3 construct: Ig-like domain, His tag; also called Ig-like domain; human ROR1-immunoglobulin domain
T3 sequence (Q01973 39-151 limits assumed): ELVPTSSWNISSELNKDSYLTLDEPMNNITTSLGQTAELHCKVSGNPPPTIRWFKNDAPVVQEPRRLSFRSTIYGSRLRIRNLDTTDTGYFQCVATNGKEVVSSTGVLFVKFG
Assay: scFv ELISA on coated domain, anti-HA-HRP, OD450
Experimental: (§3) Thereafter, the plate was treated with each scFv and reacted for 2 hours, followed by washing four times using PBST and distilled water. After binding at room temperature for 1 hour using an HRP-conjugated anti-HA antibody (Roche, 12013819001, Anti-HA-Peroxidase, High Affinity) capable of binding to the HA tag, washing was performed six times using PBST and distilled water. After color development by adding TMB substrate solution (Thermo Scientific, 34029, 1-Step™ Ultra TMB-ELISA Substrate Solution), the color reaction was stopped with stop solution (Invitrogen, SS04, ELISA Stop Solution), and the absorbance was measured at OD 450 nm. The scFv binding to each domain was analyzed through ELISA.

binding result	Binder
binds	B8
binds	B9
no binding	B10
no binding	B11

Biological target: T4, FZD+KRD (human, UniProt Q01973)
T4 construct: frizzled plus kringle domains, His tag; also called FK domain; human ROR1-frizzled-kringle domain
T4 sequence (Q01973 165-395 limits assumed): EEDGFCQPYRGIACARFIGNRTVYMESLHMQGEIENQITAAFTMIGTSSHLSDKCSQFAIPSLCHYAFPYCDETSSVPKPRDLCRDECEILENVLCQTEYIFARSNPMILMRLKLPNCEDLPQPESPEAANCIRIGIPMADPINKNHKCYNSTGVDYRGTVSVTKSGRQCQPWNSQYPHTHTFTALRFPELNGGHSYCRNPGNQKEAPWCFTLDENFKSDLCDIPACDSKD
Assay: scFv ELISA on coated domain, anti-HA-HRP, OD450
Experimental: as §3

binding result	Binder
no binding	B12
no binding	B13
no binding	B14
no binding	B8
no binding	B15
no binding	B16
no binding	B9
no binding	B10
no binding	B11

Biological target: T5, FZD (human, UniProt Q01973)
T5 construct: frizzled domain, His tag; also called Frizzled domain; human ROR1-frizzled domain
T5 sequence (Q01973 165-305 limits assumed): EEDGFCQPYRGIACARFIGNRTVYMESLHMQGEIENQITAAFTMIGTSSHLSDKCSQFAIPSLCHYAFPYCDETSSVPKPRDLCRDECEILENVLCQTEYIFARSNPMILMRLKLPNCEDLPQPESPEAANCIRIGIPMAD
Assay: scFv ELISA on coated domain, anti-HA-HRP, OD450
Experimental: as §3

binding result	Binder
no binding	B12
no binding	B13
no binding	B14
no binding	B8
no binding	B15
no binding	B16
no binding	B9
no binding	B10
no binding	B11
